From IntAct's records for PubMed 15148308

B1: Docking protein 1 (Mus musculus), P97465 (parent)
chain: MDGAVMEGPLFLQSQRFGTKRWRKTWAVLYPASPHGVARLEFFDHKGSSSRGGRGGSRRLDCKMIRLAECVSVVPVTVESPPEPGAVAFRLDTAQRSHLLAADAVSSTAWVQTLCRTAFPKGGWALAQTENQPKFSALEMLENSLYSPTWEGSQFWVTSQKTEASERCGLQGSYILRVEAEKLTLLTLGAQSQILEPLLFWPYTLLRRYGRDKVMFSFEAGRRCPSGPGTFTFQTSQGNDIFQAVEAAIQQQKAQGKVGQAQDILRTDSHDGETEGKTVPPPVPQDPLGSPPALYAEPLDSLRIPPGPSQDSVYSDPLGSTPAGAGEGVHSKKPLYWDLYGHVQQQLLKTKLTDSKEDPIYDEPEGLAPAPPRGLYDLPQEPRDAWWCQARLKEEGYELPYNPATDDYAVPPPRSPKPAPAPKPQGLILPESGTTRGSGSKGFSSDTALYSQVQKSGTSGAWDCGLSKVGNDRAGVKSEGST

Variants of: B1
Details: with nck1_mouse Nck1, Q99M51

| effect of a mutation on the interaction | Variant |
| --- | --- |
| disrupting interaction | Y361F |
